Source: paper PMC7333360

How the values were obtained:
Settings in all cases: glycan lost; control: wild-type mice
[1] = TAB1 IP and immunoblot, brain tissue
[2] = breeding homozygous knock-in mice with WT
[3] = heart weight per g body weight, three months
[4] = body weight at three months, n=6 per genotype
[5] = heterozygous crosses, observation of homozygous knock-in mice

B1: TAB1 (TGF-β activated kinase-1 binding protein-1): S393A (protein)
parent chain: MAAQRRSLLQSEQQPSWTDDLPLCHLSGVGSASNRSYSADGKGTESHPPEDNWLKFRSENNCFLYGVFNGYDGNRVTNFVAQRLSAELLLGQLNTEHTEADVRRVLLQAFDVVERSFLESIDDALAEKASLQSQLPEGVPQHQLPPQYQKILERLKALEREISGGAMAVVAVLLNSKLYVANVGTNRALLCKSTVDGLQVTQLNMDHTTENEDELFRLSQLGLDAGKIKQMGVICGQESTRRIGDYKVKYGYTDIDLLSAAKSKPIIAEPEIHGAQPLDGVTGFLVLMSEGLYKALEAAHGPGQANQEIAAMIDTEFAKQTSLDAVAQAVVDRVKRIHSDTFASGGERAKFCPRHEDMTLLVRNFGYPLGEMSQPTPTPAPGGRVYPVSVPYSSAQSTSKTSVTLSLVMPSQGQMVNGSHSASTLDEATPTLTNQSPTLTLQSTNTHTQSSSSSSDGGLFRSRPAHSLPPGEDGRVEPYVDFAEFYRLWSVDHGEQSVMTAP
no change: expression_or_secretion [1] | other: fertility [2] | other: heart weight [3] | other: body weight [4] | other: mouse viability and development [5]
